Biological target: murine DEC-205 (mouse) (UniProt Q60767)
Assay: Alexa488-conjugated antibody (10 µg) injected s.c.; flow cytometry of CD11c+ cells

UniProt Q60767, sequence (Q60767 28-1723 S1283P limits assumed): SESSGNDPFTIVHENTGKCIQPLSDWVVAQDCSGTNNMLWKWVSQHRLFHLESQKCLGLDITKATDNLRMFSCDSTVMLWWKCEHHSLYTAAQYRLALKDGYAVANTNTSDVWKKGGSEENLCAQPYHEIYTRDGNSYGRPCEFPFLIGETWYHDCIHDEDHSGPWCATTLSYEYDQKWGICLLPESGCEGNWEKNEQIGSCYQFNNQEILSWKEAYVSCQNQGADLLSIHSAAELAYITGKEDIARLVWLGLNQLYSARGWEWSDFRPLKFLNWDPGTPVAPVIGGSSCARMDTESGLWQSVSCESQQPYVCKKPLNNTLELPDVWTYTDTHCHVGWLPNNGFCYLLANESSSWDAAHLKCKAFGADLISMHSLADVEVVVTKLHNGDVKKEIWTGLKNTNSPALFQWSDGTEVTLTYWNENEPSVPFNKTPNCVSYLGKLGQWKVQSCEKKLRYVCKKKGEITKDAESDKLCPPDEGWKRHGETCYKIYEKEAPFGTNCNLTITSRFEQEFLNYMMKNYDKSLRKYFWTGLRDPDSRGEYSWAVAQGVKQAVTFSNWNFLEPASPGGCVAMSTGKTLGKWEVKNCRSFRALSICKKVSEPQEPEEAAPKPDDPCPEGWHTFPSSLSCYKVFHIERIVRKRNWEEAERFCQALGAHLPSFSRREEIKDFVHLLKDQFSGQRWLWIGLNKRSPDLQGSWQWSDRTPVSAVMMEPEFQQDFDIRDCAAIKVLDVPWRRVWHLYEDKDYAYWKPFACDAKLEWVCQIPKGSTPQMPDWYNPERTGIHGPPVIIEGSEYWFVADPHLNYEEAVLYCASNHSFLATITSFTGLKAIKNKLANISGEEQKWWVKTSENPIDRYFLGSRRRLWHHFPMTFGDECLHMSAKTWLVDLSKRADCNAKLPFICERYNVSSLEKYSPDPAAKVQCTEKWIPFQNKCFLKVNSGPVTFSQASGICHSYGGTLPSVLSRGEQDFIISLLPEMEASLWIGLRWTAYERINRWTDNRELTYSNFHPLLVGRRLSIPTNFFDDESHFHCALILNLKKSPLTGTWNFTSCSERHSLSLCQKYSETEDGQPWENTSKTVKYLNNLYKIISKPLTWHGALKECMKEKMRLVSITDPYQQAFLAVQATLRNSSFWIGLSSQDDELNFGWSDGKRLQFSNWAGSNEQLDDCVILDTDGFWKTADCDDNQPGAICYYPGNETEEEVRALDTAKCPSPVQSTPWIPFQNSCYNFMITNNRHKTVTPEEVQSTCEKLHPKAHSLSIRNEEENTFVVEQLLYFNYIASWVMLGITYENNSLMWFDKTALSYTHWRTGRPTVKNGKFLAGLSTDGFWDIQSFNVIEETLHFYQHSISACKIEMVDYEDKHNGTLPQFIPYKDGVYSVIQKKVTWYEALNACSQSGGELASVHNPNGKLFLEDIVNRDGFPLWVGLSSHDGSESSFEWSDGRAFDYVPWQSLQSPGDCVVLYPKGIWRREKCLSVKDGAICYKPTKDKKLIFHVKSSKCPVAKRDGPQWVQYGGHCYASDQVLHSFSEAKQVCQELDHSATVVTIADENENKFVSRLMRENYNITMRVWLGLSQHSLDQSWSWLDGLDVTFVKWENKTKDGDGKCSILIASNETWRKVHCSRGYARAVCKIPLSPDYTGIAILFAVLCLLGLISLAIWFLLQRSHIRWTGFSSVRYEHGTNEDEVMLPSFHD

## NLDC-145 monoclonal antibody to DEC-205
  percent of distal lymph node DCs loaded with injected antibody at 6 hrs: 40%
  percent of draining lymph node DCs loaded with injected antibody at 6 hrs: > 50%
  percent of spleen DCs loaded with injected antibody at 6 hrs: 30%

Source: patent US20040258688A1
